The record followed here is publication PMC9413444 (ACS Nano, 2022).

This data set has as its system intracranial glioblastoma GL261 in BL/6 mice. The settings on record: GL261 tumor-bearing BL/6 mice; IV; 2 h post-injection (Figure 2B).

As to “poly(β-L-malic acid)-trileucine polymer [P/LLL(40%)]”, the “increase of fluorescence in tumor tissue from dose 0.25X to dose 1.0X” value is “increases proportionally with the dose administered”.
